Source: publication doi:10.1101/2020.08.21.261974

Molecular target: BG505 SOSIP.664 native-like envelope gp140 trimer (HIV-1 (BG505))
Test: cryo-EM structure

M48U1 peptide
stoichiometry N (per BG505 trimer): 3
